Experiment [1] has as its system complete Freund's adjuvant (CFA)-induced chronic arthritis. As to the kind of experiment: CFA-induced chronic arthritis in rats, nociceptive response (vocalization test, Example 8). The experiment is classed as in vivo, rat. The settings on record: for nociceptive response (vocalization): arthritic rats, E3 1 mg/kg or 911 10 mg/kg i.v. D14+D19, indomethacin 3 mg/kg/day p.o. 10 days. The method, then:
[…]. Analgesic effects of E3 and 911 were evaluated by the measurement of nociceptive response. Anti-inflammatory effects were evaluated by paw volume, arthritis index (inflammation score), body and hindpaws weight. […].
(§1) Five groups of 10 animals (5-weeks old male Lewis rats-LEWIS Lew/Ico, from Charles River Laboratories—Belgium) each were included in this study: Group 1: non arthritic rats/saline (vehicle), i.v. bolus, n=10; Group 2: arthritic rats/saline (vehicle), i.v. bolus, n=10; Group 3: arthritic rats/Indomethacin 3 mg/kg, p.o daily over 10 days, n=10; […]; Group 5: arthritic rats/911, 10 mg/kg, i.v. bolus, n=10. The doses were expressed in terms of free active substance (mg/kg). E3 and 911 were extemporaneously prepared in saline from the stock solution to the desired concentration. […]. All diluted solutions (before i.v. injection) were sterilized using a sterile filter unit of 0.20.μm. pH and osmolarity values of diluted solutions were measured before each i.v. injection. Before the first i.v., osmolarity (mosm/L) for saline, E3, and 911 were 278, 269, and 308 respectively; pH for saline, E3, and 911 were 5.93, 6.76, 6.71 respectively. Before the second i.v., osmolarity (mosm/L) for saline, E3, and 911 were 280, 270, and 309 respectively; pH for saline, E3, and 911 were 5.86, 6.72, and 6.59 respectively.
(§2) E3 or 911 or saline were administered by i.v. bolus injection on Day 14 and Day 19 after arthritis induction in a coded and random order with a volume of 5 mL/kg. The non arthritic group was given by i.v. bolus injection of saline on Day 14 and Day 19 with a volume of 5 mL/kg. Indomethacin was extemporaneously prepared in 1% methylcellulose. Indomethacin was administered by oral route (p.o.) once daily over 10 days from Day 14 to Day 23 after arthritis induction in a coded and random order with a volume of 10 mL/kg.
On Day 0 (D 0), arthritis was induced in 70 rats by intradermal injection into the tail of 0.05 ml of a Mycobacterium butyricum suspension.
The nociceptive response was evaluated by gentle flexion of the right and left hindpaw repeatedly 2 times at intervals of 4 to 5 sec with a finger of the operator (arthritic rats). The intensity of the level of vocalization was recorded for each animal for each hindpaw (2 times: on right hindpaw: s1 and s3; 2 times: on left hindpaw: s2 and s4). This evaluation was performed at the following times (after induction of arthritis): Day 14 (before i.v. bolus or p.o. administration); Day 18 (before the second i.v. bolus injection or 1 hr after p.o. administration); and Day 24 (5 days after the last i.v. bolus injection or 24 h after the last p.o. administration). All measurements were performed between 9:00 and 12:00 am except at D 14 (7:30-9:00 am) and D 24 (7:30-9:00 am).
All results were reported as Mean ±S.E.M. of 10 rats in each group at each time point. Paw volume was expressed in ml calculated from the mean value of the right and left paw volume. Arthritis index was calculated from the sum of the score obtained for each of the 4 paws. The nociceptive response was evaluated by the intensity of the level of vocalization recorded for each animal (mean of 4 values: 2 times/paw) in mV. The percentage inhibition of the nociceptive response was calculated from the mean value of the vehicle-treated arthritic group [(mean value of vehicle-treated arthritic group−mean value of treated arthritic group/mean value of vehicle-treated arthritic group)*100]. Body weight was expressed in grams. Hindpaws (left and right) weight was expressed in grams. Cytokine levels (IL-6, IL-1β, TNF-α and TGF-β1) of each hind paw was expressed in pg/ml. Circulating levels of TGF-β1 was expressed in pg/ml. Radiological index for each parameter (demineralization, erosions, periostal reaction, soft tissue damage, space joint, osteogenesis deformity) and total radiological index (total score) were calculated from the sum of the scores obtained for each parameter. […]

The test system is the same in experiment [2]. Nature of the experiment: CFA arthritis rats, paw volume (plethysmometer). The experiment is classed as in vivo, rat. The settings on record: for change of paw volume compared to vehicle-treated arthritic group: E3 1 mg/kg or 911 10 mg/kg i.v. D14+D19, indomethacin 3 mg/kg/day p.o.; for paw volume (mean of right and left hindpaw): arthritic rats. The method, then:
as §1, §2
The right and left hindpaw volume of each rat (arthritic and non arthritic rats) was measured using a plethysmometer. The measurements were performed at the following times (after induction of arthritis): Day 14 (before i.v. bolus or p.o. administration); and Day 24 (5 days after the last i.v. bolus injection or 24 h after the last p.o. administration). All measurements were performed between 9:00 and 12:00 am. All the data were collected and stored by the WinDas software.
All results were reported as Mean ±S.E.M. of 10 rats in each group at each time point. Paw volume was expressed in ml calculated from the mean value of the right and left paw volume. Arthritis index was calculated from the sum of the score obtained for each of the 4 paws. The nociceptive response was evaluated by the intensity of the level of vocalization recorded for each animal (mean of 4 values: 2 times/paw) in mV. The percentage inhibition of the nociceptive response was calculated from the mean value of the vehicle-treated arthritic group [(mean value of vehicle-treated arthritic group−mean value of treated arthritic group/mean value of vehicle-treated arthritic group)*100]. Body weight was expressed in grams. Hindpaws (left and right) weight was expressed in grams. Cytokine levels (IL-6, IL-1β, TNF-α and TGF-β1) of each hind paw was expressed in pg/ml. Circulating levels of TGF-β1 was expressed in pg/ml. Radiological index for each parameter (demineralization, erosions, periostal reaction, soft tissue damage, space joint, osteogenesis deformity) and total radiological index (total score) were calculated from the sum of the scores obtained for each parameter. The inter-group significances of the deviations between the values of vehicle-treated group (arthritic rats) and vehicle-treated group (non arthritic rats) were assessed by the Student t test or Mann-Whitney Rank Sum Test when equal variance or normality test failed. The inter-group significances of the deviations between the values of vehicle-treated group (arthritic rats) and E3- and 911- and Indomethacin-treated groups were assessed by the 1-way analysis of variance ANOVA followed by the non-paired Dunnett t test. A probability of P<0.05 was considered as significant. All statistical analysis was performed by the Sigmastat™ software.

The mark [3] stands for this setting: E3 1 mg/kg or 911 10 mg/kg i.v. D14+D19, indomethacin 3 mg/kg/day p.o., D24.
[4] abbreviates: E3 1 mg/kg or 911 10 mg/kg i.v., indomethacin 3 mg/kg/day p.o., D14.
Where [5] appears, read: E3 1 mg/kg or 911 10 mg/kg i.v., indomethacin 3 mg/kg/day p.o., D18.
[6] abbreviates: E3 1 mg/kg or 911 10 mg/kg i.v. D14+D19, indomethacin 3 mg/kg/day p.o. 10 days, D24.

Consider `COc1ccc2c(c1)c(CC(=O)O)c(C)n2C(=O)c1ccc(Cl)cc1` [Indomethacin, reference compound], for which the “% inhibition of nociceptive response vs vehicle-treated arthritic group” value amounted to 74% in experiment [1] (setting [3]), 0% in experiment [1] (setting [4]) and 71% in experiment [1] (setting [5]). Also, the entries for the “decrease of nociceptive response vs vehicle-treated arthritic group” value in experiment [1] (setting [3]) and in experiment [1] (setting [5]) were roughly −4353 mV and “about −3768 mV”, respectively. Also, the “nociceptive response (vocalization)” value in experiment [1] (D14 (before dosing)) amounted to 4386±235 mV; in experiment [1] (D18), 1511±398 mV; in experiment [1] (D24), 1552±508 mV. For the same molecule, the “change of paw volume compared to vehicle-treated arthritic group” value in experiment [2] (D24) was “about −0.75 mL”. Besides, the results for the “paw volume (mean of right and left hindpaw)” value in experiment [2] (D14 (before dosing)) and in experiment [2] (setting [6]) were 2.08 ± 0.06 mL and 1.59 ± 0.03 mL, respectively.

B1: E3: humanized, affinity matured anti-NGF antagonist antibody; variable regions SEQ ID NO:1 and 2; human IgG2a (A330P331 to S330S331), kappa (antibody, V domains shown)
VH: QVQLQESGPGLVKPSETLSLTCTVSGFSLIGYDLNWIRQPPGKGLEWIGIIWGDGTTDYNSAVKSRVTISKDTSKNQFSLKLSSVTAADTAVYYCARGGYWYATSYYFDYWGQGTLVTVS
VL: DIQMTQSPSSLSASVGDRVTITCRASQSISNNLNWYQQKPGKAPKLLIYYTSRFHSGVPSRFSGSGSGTDFTFTISSLQPEDIATYYCQQEHTLPYTFGQGTKLEIKRT
modifications: human IgG2a constant (A330S/P331S) and kappa constant missing
Regarding B1, the “analgesic effects in arthritis model (conclusion)” value in experiment [1] (E3 1 mg/kg i.v., 911 10 mg/kg i.v., D14+D19) is reported as “strong analgesic effects”. In addition, the “% inhibition of nociceptive response vs vehicle-treated arthritic group” value was found to be 100% in experiment [1] (setting [3]), 0% in experiment [1] (setting [4]) and 79% in experiment [1] (setting [5]). Further, the “decrease of nociceptive response vs vehicle-treated arthritic group” value in experiment [1] (setting [3]) is given as roughly −5905 mV; in experiment [1] (setting [5]), “about −4167 mV”. For the same molecule, the “nociceptive response (vocalization)” value in experiment [1] (D14 (before dosing)) is 4644±367 mV; in experiment [1] (D18) it was 1112±401 mV; in experiment [1] (D24) it was 0±0 mV. Also, the “change of paw volume compared to vehicle-treated arthritic group” value in experiment [2] (D24) is “about 0.37 mL”. In addition, the results for the “paw volume (mean of right and left hindpaw)” value in experiment [2] (D14 (before dosing)) and in experiment [2] (setting [6]) were 2.06 ± 0.03 mL and 2.71 ± 0.09 mL, respectively.
